The source of these data is PMC4856222.

pKd: −log10 of the molar value. Read-outs that look alike come from different tables or passages of the source.

Usually pKd stands for the Kd on a negative log10 scale, so that one unit is a factor of ten.

In test [1] the target is NKG2D (in the affinity measurement) (UniProt O54709).
Test [2] concerns the target NKG2D (Homo sapiens) (UniProt P26718). The following applies: cited from earlier work.
The target is the same in test [3]. The following applies: cited from earlier work. This is another data set of the same source.

Chain of UniProt P26718 (P26718 whole entry): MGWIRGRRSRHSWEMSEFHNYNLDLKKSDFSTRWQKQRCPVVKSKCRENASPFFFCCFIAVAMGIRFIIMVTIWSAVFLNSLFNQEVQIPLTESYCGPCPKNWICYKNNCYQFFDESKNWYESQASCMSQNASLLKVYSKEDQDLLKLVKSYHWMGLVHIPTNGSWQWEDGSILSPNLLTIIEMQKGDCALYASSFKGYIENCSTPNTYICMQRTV
Chain of UniProt O54709 (O54709 whole entry): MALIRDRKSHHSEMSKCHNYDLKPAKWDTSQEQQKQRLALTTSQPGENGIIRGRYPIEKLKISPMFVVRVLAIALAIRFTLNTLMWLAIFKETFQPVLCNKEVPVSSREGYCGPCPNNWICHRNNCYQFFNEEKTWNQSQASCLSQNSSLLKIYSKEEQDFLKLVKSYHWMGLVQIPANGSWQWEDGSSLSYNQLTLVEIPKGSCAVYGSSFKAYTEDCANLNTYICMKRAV

shed HA-MULT1 (domain or fragment) had a pKd in test [1] of 7.89.
With MICA (from UniProt Q29983), the negative-log Kd (pKd) in the test with NKG2D (Homo sapiens) [2] was 6.00.
Turning to MICB (from UniProt Q29980), in the test with NKG2D (Homo sapiens) [3], the negative-log Kd (pKd) was 6.00.
In test [1], “secMULT1 (secreted ectodomain fragment of HA-MULT1) (domain or fragment)” gave a pKd of 7.72.
